Test results from patent US20240301442A1 (Regeneron, published 2024).
Several values for one entry are separate records, joined by “and”; a condition that tells them apart may be missing. Equal entries are not always repeated.

Tests used:
[1] = molecular target: recombinant full-length P. aeruginosa PcrV (GenScript) (Pseudomonas aeruginosa)
[2] = molecular target: Zika virus envelope (Env) protein on MR766 virus (Zika virus MR766, UniProt Q32ZE1 291-790); experiment: cell-based or functional assay
[3] = molecular target: PcrV of P. aeruginosa strain 6077 (on live bacteria) (Pseudomonas aeruginosa strain 6077); experiment: cell-based or functional assay
Zika (prM80E)-mmh = molecular target: T1, Zika (prM80E)-mmh (Zika virus); experiment: ELISA, Zika (prM80E)-mmh coated, mouse serum, anti-human IgG HRP detection
T1 construct: domain: prM80E; also called Zika envelope protein; Lot #REGN4233-L4

B1: REGN4446 anti-Zika antibody expressed in mouse serum from episomal AAV2/8.CASI.REGN4446 HC T2A RORss LC (antibody, V domains shown)
VH: QVQLVESGGGVVQPGRSLRLSCAASGFTFNYYGMHWVRQAPGKGLEWVAVISYDGTNKYYADSVKGRFTTSRDNSKNTLYLQMNSLRAEDTALYYCARDRGGRFDYWGQGIQVTVSS
VL: EIVLTQSPDTLSLSPGERATLSCRASQSVSSNYLAWYQQKPGQAPRLLIYGASSRATGIPDRFSGSGSGTDFTLTISRLEPEDFAVYYCQRYGTSPLTFGGGTKVEIKR
notes: also called CASI HC T2A RORss LC; AAV2/8.CASI.REGN4446 HC T2A LC
EC50 [1]: 204 nM | Neutralization EC50 [2]: 469 pM and 605 pM | Neutralization IC50 [3]: ~8.89 pM | EC50 (Zika (prM80E)-mmh): 0.296 nM and 0.521 nM
